Sequences and labels used below:
B1: TGF-beta-activated kinase 1 and MAP3K7-binding protein 2 (Homo sapiens), Q9NYJ8 (parent)
chain: MAQGSHQIDFQVLHDLRQKFPEVPEVVVSRCMLQNNNNLDACCAVLSQESTRYLYGEGDLNFSDDSGISGLRNHMTSLNLDLQSQNIYHHGREGSRMNGSRTLTHSISDGQLQGGQSNSELFQQEPQTAPAQVPQGFNVFGMSSSSGASNSAPHLGFHLGSKGTSSLSQQTPRFNPIMVTLAPNIQTGRNTPTSLHIHGVPPPVLNSPQGNSIYIRPYITTPGGTTRQTQQHSGWVSQFNPMNPQQVYQPSQPGPWTTCPASNPLSHTSSQQPNQQGHQTSHVYMPISSPTTSQPPTIHSSGSSQSSAHSQYNIQNISTGPRKNQIEIKLEPPQRNNSSKLRSSGPRTSSTSSSVNSQTLNRNQPTVYIAASPPNTDELMSRSQPKVYISANAATGDEQVMRNQPTLFISTNSGASAASRNMSGQVSMGPAFIHHHPPKSRAIGNNSATSPRVVVTQPNTKYTFKITVSPNKPPAVSPGVVSPTFELTNLLNHPDHYVETENIQHLTDPTLAHVDRISETRKLSMGSDDAAYTQALLVHQKARMERLQRELEIQKKKLDKLKSEVNEMENNLTRRRLKRSNSISQIPSLEEMQQLRSCNRQLQIDIDCLTKEIDLFQARGPHFNPSAIHNFYDNIGFVGPVPPKPKDQRSIIKTPKTQDTEDDEGAQWNCTACTFLNHPALIRCEQCEMPRHF
partner: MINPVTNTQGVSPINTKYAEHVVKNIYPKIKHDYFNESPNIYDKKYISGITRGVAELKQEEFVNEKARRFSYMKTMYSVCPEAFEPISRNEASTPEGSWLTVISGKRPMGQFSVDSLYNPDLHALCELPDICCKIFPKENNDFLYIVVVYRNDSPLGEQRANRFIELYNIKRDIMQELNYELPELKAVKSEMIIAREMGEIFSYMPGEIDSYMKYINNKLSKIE
B2: TGF-beta-activated kinase 1 and MAP3K7-binding protein 3 (Homo sapiens), Q8N5C8-1 (parent)
chain: MAQSSPQLDIQVLHDLRQRFPEIPEGVVSQCMLQNNNNLEACCRALSQESSKYLYMEYHSPDDNRMNRNRLLHINLGIHSPSSYHPGDGAQLNGGRTLVHSSSDGHIDPQHAAGKQLICLVQEPHSAPAVVAATPNYNPFFMNEQNRSAATPPSQPPQQPSSMQTGMNPSAMQGPSPPPPPPSYMHIPRYSTNPITVTVSQNLPSGQTVPRALQILPQIPSNLYGSPGSIYIRQTSQSSSGRQTPQSTPWQSSPQGPVPHYSQRPLPVYPHQQNYQPSQYSPKQQQIPQSAYHSPPPSQCPSPFSSPQHQVQPSQLGHIFMPPSPSTTPPHPYQQGPPSYQKQGSHSVAYLPYTASSLSKGSMKKIEITVEPSQRPGTAINRSPSPISNQPSPRNQHSLYTATTPPSSSPSRGISSQPKPPFSVNPVYITYTQPTGPSCTPSPSPRVIPNPTTVFKITVGRATTENLLNLVDQEERSAAPEPIQPISVIPGSGGEKGSHKYQRSSSSGSDDYAYTQALLLHQRARMERLAKQLKLEKEELERLKSEVNGMEHDLMQRRLRRVSCTTAIPTPEEMTRLRSMNRQLQINVDCTLKEVDLLQSRGNFDPKAMNNFYDNIEPGPVVPPKPSKKDSSDPCTIERKARRISVTSKVQADIHDTQAAAADEHRTGSTQSPRTQPRDEDYEGAPWNCDSCTFLNHPALNRCEQCEMPRYT
partner: B1 partner

One experiment covers variants of B1. The following applies: with nlee_eco27 nleE.
For the variant C684S, the “effect of a mutation on the interaction” value was “disrupting interaction”. Take C670S: the “effect of a mutation on the interaction” value was “disrupting interaction”. With C687S, the “effect of a mutation on the interaction” value was “disrupting interaction”.

Variants of B2 are the subject of a further experiment. The conditions noted are these: with nlee_eco27 nleE.
For the variant C706S, the “effect of a mutation on the interaction” value is reported as “disrupting interaction”. For the variant C689S, the “effect of a mutation on the interaction” value was “disrupting interaction”. For C703S, the “effect of a mutation on the interaction” value is reported as “disrupting interaction”.

For the origin of these results see IntAct's records for PubMed 22158122.
